Results from PMC3510490 (Nucleic Acids Research, 2012).

Target: T1, (H3–H4)2 tetramer (Xenopus laevis, UniProt P84233 1-136; P62799 1-103, H4 E63C, Alexa 488 maleimide on C63 (H4 E63C))
T1 construct: Histone H3, Xenopus laevis; also called H3–H4 tetramer; H3–H4 complex; copies: 2 + 2
Assay: other fluorescence titration; Arp constructs or sub-complex titrated (1 to 5000 nM) into fluorescently labelled histone complexes or nucleosomes kept at 0.5-1 nM, 40 µl in microplates; 20 mM Tris pH 7.5, 150 mM KCl, 5% glycerol, 1 mM TCEP, 0.01% CHAPS, 0.01% octylglucoside; room temperature, 20-30 min; apparent Kd and Hill coefficient from non-linear fit; quadruplicates
Conditions: both partners purified

B1: Saccharomyces cerevisiae Arp4 (natural protein)
chain: MSNAALQVYGGDEVSAVVIDPGSYTTNIGYSGSDFPQSILPSVYGKYTADEGNKKIFSEQSIGIPRKDYELKPIIENGLVIDWDTAQEQWQWALQNELYLNSNSGIPALLTEPVWNSTENRKKSLEVLLEGMQFEACYLAPTSTCVSFAAGRPNCLVVDIGHDTCSVSPIVDGMTLSKSTRRNFIAGKFINHLIKKALEPKEIIPLFAIKQRKPEFIKKTFDYEVDKSLYDYANNRGFFQECKETLCHICPTKTLEETKTELSSTAKRSIESPWNEEIVFDNETRYGFAEELFLPKEDDIPANWPRSNSGVVKTWRNDYVPLKRTKPSGVNKSDKKVTPTEEKEQEAVSKSTSPAANSADTPNETGKRPLEEEKPPKENNELIGLADLVYSSIMSSDVDLRATLAHNVVLTGGTSSIPGLSDRLMTELNKILPSLKFRILTTGHTIERQYQSWLGGSILTSLGTFHQLWVGKKEYEEVGVERLLNDRFR
notes: Actin-related protein 4 (Arp4), S. cerevisiae; also called Sc Arp4; yeast Arp4
B1 was tested, and the Kd was 74.3 nM.

B2: Saccharomyces cerevisiae Arp8 (natural protein)
chain: MSQEEAESSIIYEEPIDIPLEDDDDEDELEEENSVPLSSQADQENAENESDDSVDNVVGSETPRSVTGLSVDPRDVADEEDEDEEGEDEDEDEDDNDVDNEDENDNDNANENENELGSSRDKRAPPAVQTSKRYKKYPKLDPAKAPPGKKVPLHLLEKRRLGRIKAAEEFAKTLKKIGIEKVETTTLPATGLFQPLMLINQKNYSSDYLKKDDQIFALRDRKFLRNNNTSQISSTNTPDVIDLKSLPHSEASAAPLNDEIDLNDPTATIVIHPGSNSIKIGFPKDDHPVVVPNCVAVPKKWLDLENSEHVENVCLQREQSEEFNNIKSEMEKNFRERMRYYKRKVPGNAHEQVVSFNENSKPEIISEKNDPSPIEWIFDDSKLYYGSDALRCVDEKFVIRKPFRGGSFNVKSPYYKSLAELISDVTKLLEHALNSETLNVKPTKFNQYKVVLVIPDIFKKSHVETFIRVLLTELQFQAVAIIQESLATCYGAGISTSTCVVNIGAAETRIACVDEGTVLEHSAITLDYGGDDITRLFALFLLQSDFPLQDWKIDSKHGWLLAERLKKNFTTFQDADVAVQLYNFMNRSPNQPTEKYEFKLFDEVMLAPLALFFPQIFKLIRTSSHKNSSLEFQLPESRDLFTNELNDWNSLSQFESKEGNLYCDLNDDLKILNRILDAHNIIDQLQDKPENYGNTLKENFAPLEKAIVQSIANASITADVTRMNSFYSNILIVGGSSKIPALDFILTDRINIWRPSLLSSASFPQFYKKLTKEIKDLEGHYVNAPDKTEDENKQILQAQIKEKIVEELEEQHQNIEHQNGNEHIFPVSIIPPPRDMNPALIIWKGASVLAQIKLVEELFITNSDWDVHGSRILQYKCIFTY
notes: Actin-related protein 8 (Arp8), S. cerevisiae; also called Sc Arp8; yeast Arp8
With B2 the Kd was 485 nM.
